This note sets out measurements from article PMC6483157, “Structure of the human ClC-1 chloride channel” (PLoS Biology, 2019).

This series concerns the molecule itself. In words: cryo-EM structure; single-particle cryo-EM of purified ClC-1 in amphipol PMAL-C8; 20 mM Tris pH 7.5, 100 mM NaCl, 0.2 mM TCEP, no nucleotides or antibodies; also 20 mM BisTris pH 6.2 with 0.3 mM NAD; C2 symmetry applied.

B1: human ClC-1 chloride channel (natural protein, UniProt P35523 1-988, looked up)
chain: MEQSRSQQRGGEQSWWGSDPQYQYMPFEHCTSYGLPSENGGLQHRLRKDAGPRHNVHPTQIYGHHKEQFSDREQDIGMPKKTGSSSTVDSKDEDHYSKCQDCIHRLGQVVRRKLGEDGIFLVLLGLLMALVSWSMDYVSAKSLQAYKWSYAQMQPSLPLQFLVWVTFPLVLILFSALFCHLISPQAVGSGIPEMKTILRGVVLKEYLTMKAFVAKVVALTAGLGSGIPVGKEGPFVHIASICAAVLSKFMSVFCGVYEQPYYYSDILTVGCAVGVGCCFGTPLGGVLFSIEVTSTYFAVRNYWRGFFAATFSAFVFRVLAVWNKDAVTITALFRTNFRMDFPFDLKELPAFAAIGICCGLLGAVFVYLHRQVMLGVRKHKALSQFLAKHRLLYPGIVTFVIASFTFPPGMGQFMAGELMPREAISTLFDNNTWVKHAGDPESLGQSAVWIHPRVNVVIIIFLFFVMKFWMSIVATTMPIPCGGFMPVFVLGAAFGRLVGEIMAMLFPDGILFDDIIYKILPGGYAVIGAAALTGAVSHTVSTAVICFELTGQIAHILPMMVAVILANMVAQSLQPSLYDSIIQVKKLPYLPDLGWNQLSKYTIFVEDIMVRDVKFVSASYTYGELRTLLQTTTVKTLPLVDSKDSMILLGSVERSELQALLQRHLCPERRLRAAQEMARKLSELPYDGKARLAGEGLPGAPPGRPESFAFVDEDEDEDLSGKSELPPSLALHPSTTAPLSPEEPNGPLPGHKQQPEAPEPAGQRPSIFQSLLHCLLGRARPTKKKTTQDSTDLVDNMSPEEIEAWEQEQLSQPVCFDSCCIDQSPFQLVEQTTLHKTHTLFSLLGLHLAYVTSMGKLRGVLALEELQKAIEGHTKSGVQLRPPLASFRNTTSTRKSTGAPPSSAENWNLPEDRPGATGTGDVIAASPETPVPSPSPEPPLSLAPGKVEGELEELELVESPGLEEELADILQGPSLRSTDEEDEDELIL
notes: human ClC-1 chloride channel, full length, from yeast codon-optimized cDNA; followed by a TEV cleavage site, GFP and His10; released from the Ni-beads by TEV protease; The models cover only part of the chain: membrane domain residues 115-589 (loop 254-261 missing) and trimmed CBS domains; The N terminus and helix A are not resolved; source: yeast strain PAP1500 (pEMBLyex4), 15-L bioreactors; …
Take B1: the binding result was “binds”.
